Values quoted from earlier work as cited in publication PMC3562316.

Target: IGF1R (Homo sapiens) (UniProt P08069)

Kd: 0.2 nM
Substance: IGF-2 (from UniProt P01344)
